Target: endogenous CDK9 (cyclin dependent kinase 9, kinase of pTEFb) (human (endogenous in HEK293T, SEM and …, UniProt P50750 1-372))
Assay: cell-based or functional assay

endogenous CDK9 (cyclin dependent kinase 9, kinase of pTEFb) (human, sequence (P50750 whole entry): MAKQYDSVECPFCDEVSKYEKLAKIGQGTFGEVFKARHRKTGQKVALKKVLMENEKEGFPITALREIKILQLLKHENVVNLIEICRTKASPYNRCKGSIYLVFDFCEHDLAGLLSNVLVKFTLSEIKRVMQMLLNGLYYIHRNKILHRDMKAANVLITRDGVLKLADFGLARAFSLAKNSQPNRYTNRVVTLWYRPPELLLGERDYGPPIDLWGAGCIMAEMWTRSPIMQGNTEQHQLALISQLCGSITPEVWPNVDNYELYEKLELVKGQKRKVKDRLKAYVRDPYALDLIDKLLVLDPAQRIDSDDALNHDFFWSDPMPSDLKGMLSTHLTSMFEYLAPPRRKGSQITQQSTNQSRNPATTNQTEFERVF

luciferase in the RNA tethering assay (TAR/IIb reporter) of Rev-ENL in 293T cells, relative to Rev alone; contact with pTEFb indirect: ~6 fold
B1: ENL (eleven nineteen leukemia protein), full-length two-hybrid fusion (natural protein, human, UniProt Q03111 1-559, looked up)
chain: MDNQCTVQVRLELGHRAQLRKKPTTEGFTHDWMVFVRGPEQCDIQHFVEKVVFWLHDSFPKPRRVCKEPPYKVEESGYAGFIMPIEVHFKNKEEPRKVCFTYDLFLNLEGNPPVNHLRCEKLTFNNPTTEFRYKLLRAGGVMVMPEGADTVSRPSPDYPMLPTIPLSAFSDPKKTKPSHGSKDANKESSKTSKPHKVTKEHRERPRKDSESKSSSKELEREQAKSSKDTSRKLGEGRLPKEEKAPPPKAAFKEPKMALKETKLESTSPKGGPPPPPPPPPRASSKRPATADSPKPSAKKQKKSSSKGSRSAPGTSPRTSSSSSFSDKKPAKDKSSTRGEKVKAESEPREAKKALEVEESNSEDEASFKSESAQSSPSNSSSSSDSSSDSDFEPSQNHSQGPLRSMVEDLQSEESDEDDSSSGEEAAGKTNPGRDSRLSFSDSESDNSADSSLPSREPPPPQKPPPPNSKVSGRRSPESCSKPEKILKKGTYDKAYTDELVELHRRLMALRERNVLQQIVNLIEETGHFNVTNTTFDFDLFSLDETTVRKLQSCLEAVAT
